Sequences and labels used below:
B1: human galectin 3 binding protein (G3BP), native protein of human serum (other)
chain: VNDGDMRLADGGATNQGRVEIFYRGQWGTVCDNLWDLTDASVVCRALGFENATQALGRAAFGQGSGPIMLDEVQCTGTEASLADCKSLGWLKSNCRHERDAGVVCTNETRSTHTLDLSRELSEALGQIFDSQRGCDLSISVNVQGEDALGFCGHTVILTANLEAQALWKEPGSNVTMSVDAECVPMVRDLLRYFYSRRIDITLSSVKCFHKLASAYGARQLQGYCASLFAILLPQDPSFQMPLDLYAYAVATGDALLEKLCLQFLAWNFEALTQAEAWPSVPTDLLQLLLPRSDLAVPSELALLKAVDTWSWGERASHEEVEGLVEKIRFPMMLPEELFELQFNLSLYWSHEALFQKKTLQALEFHTVPFQLLARYKGLNLTEDTYKPRIYTSPTWSAFVTDSSWSARKSQLVYQSRRGPLVKYSSDYFQAPSDYRYYPYQSFQTPQHPSFLFQDKRVSWSLVYLPTIQSCWNYGFSCSSDELPVLGLTKSGGSDRTIAYENKALMLCEGLFVADVTDFEGWKAAIPSALDTNSSKSTSSFPCPAGHFNGFRTVIRPFYLTNSSGVD
notes: also called hu-G3BP; huG3BP

For experiment [1], the target named is rAAV-2 (recombinant adeno-associated virus vector with AAV-2 capsid) (adeno-associated virus serotype 2, UniProt P03135 1-735). As to the kind of experiment: rAAV immobilised on AVB-Sepharose beads incubated with seronegative human serum; Western blot for G3BP.
The target of experiment [2] is B1. As to the kind of experiment: surface plasmon resonance imagery, rAAV immobilised on glass prism, hu-G3BP injected.
Experiment [3] addresses T1, murine G3BP (mouse cyclophilin C-associated protein), native protein of mouse serum (mouse, UniProt Q07797 19-577).
T1 construct: also called G3BP murine protein homolog; CyCAP
T1 sequence: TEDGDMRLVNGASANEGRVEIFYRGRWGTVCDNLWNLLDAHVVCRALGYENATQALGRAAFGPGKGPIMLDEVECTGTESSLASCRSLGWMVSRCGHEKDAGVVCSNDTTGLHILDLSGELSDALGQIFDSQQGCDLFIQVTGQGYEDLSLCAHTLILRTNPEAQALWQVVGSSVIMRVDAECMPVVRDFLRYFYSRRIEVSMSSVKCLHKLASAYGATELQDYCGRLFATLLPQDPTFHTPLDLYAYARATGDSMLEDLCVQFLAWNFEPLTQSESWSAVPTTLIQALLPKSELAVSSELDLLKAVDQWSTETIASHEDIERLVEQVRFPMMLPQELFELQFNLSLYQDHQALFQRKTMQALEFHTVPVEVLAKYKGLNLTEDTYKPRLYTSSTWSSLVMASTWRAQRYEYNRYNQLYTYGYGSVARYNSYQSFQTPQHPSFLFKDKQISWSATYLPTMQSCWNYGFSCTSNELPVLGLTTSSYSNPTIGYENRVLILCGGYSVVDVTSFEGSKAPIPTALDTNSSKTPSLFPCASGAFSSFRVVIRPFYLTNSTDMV
As to the kind of experiment: AAV6 incubated with seronegative murine serum, ultracentrifugation, 2D gel.

Experiment [4] deals with T2, human C-reactive protein (CRP), native protein of human serum (human, UniProt P02741 19-224).
T2 construct: mature; also called human CRP; human homolog of CRP
T2 sequence: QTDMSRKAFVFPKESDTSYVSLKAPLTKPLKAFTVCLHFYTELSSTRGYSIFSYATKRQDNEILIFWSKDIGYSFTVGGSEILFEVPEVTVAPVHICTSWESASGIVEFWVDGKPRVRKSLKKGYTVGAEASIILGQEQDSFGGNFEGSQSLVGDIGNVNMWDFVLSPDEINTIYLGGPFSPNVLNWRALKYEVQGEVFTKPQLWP
As to the kind of experiment: rAAV-6 immobilised on AVB-Sepharose incubated with human serum; PAGE and Western blot with human CRP specific antibodies. For orientation: A western blot detects proteins with antibodies after separation by electrophoresis.

The source of these data is patent US20130189225A1 (ASSOCIATION INSTITUT DE MYOLOGIE, published 2013).

rAAV-2 (recombinant adeno-associated virus vector with AAV-2 capsid), sequence (P03135 whole entry): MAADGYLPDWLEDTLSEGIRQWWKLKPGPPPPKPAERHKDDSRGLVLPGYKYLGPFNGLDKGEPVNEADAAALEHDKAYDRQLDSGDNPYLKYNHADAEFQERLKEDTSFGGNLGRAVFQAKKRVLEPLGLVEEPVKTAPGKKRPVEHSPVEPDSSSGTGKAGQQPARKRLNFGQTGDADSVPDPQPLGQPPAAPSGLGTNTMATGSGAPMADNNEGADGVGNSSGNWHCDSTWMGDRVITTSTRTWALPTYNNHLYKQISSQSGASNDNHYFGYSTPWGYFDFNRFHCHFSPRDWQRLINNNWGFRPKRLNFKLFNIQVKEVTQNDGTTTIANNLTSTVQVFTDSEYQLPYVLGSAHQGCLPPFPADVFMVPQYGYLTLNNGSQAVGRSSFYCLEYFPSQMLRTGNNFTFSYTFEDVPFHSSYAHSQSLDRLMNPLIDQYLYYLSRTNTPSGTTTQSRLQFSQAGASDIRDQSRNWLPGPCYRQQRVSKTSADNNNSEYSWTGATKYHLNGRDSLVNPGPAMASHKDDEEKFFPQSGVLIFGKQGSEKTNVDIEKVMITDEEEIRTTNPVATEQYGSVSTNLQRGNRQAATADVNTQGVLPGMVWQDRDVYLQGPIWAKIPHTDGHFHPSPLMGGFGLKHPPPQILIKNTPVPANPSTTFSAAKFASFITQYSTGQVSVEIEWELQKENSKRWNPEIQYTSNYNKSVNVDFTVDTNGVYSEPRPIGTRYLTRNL

B1: in experiment [1], the binding result is given as “no binding”.

B2: rAAV-6 (recombinant adeno-associated virus vector with AAV-6 capsid) (other)
chain: MAADGYLPDWLEDNLSEGIREWWDLKPGAPKPKANQQKQDDGRGLVLPGYKYLGPFNGLDKGEPVNAADAAALEHDKAYDQQLKAGDNPYLRYNHADAEFQERLQEDTSFGGNLGRAVFQAKKRVLEPFGLVEEGAKTAPGKKRPVEQSPQEPDSSSGIGKTGQQPAKKRLNFGQTGDSESVPDPQPLGEPPATPAAVGPTTMASGGGAPMADNNEGADGVGNASGNWHCDSTWLGDRVITTSTRTWALPTYNNHLYKQISSASTGASNDNHYFGYSTPWGYFDFNRFHCHFSPRDWQRLINNNWGFRPKRLNFKLFNIQVKEVTTNDGVTTIANNLTSTVQVFSDSEYQLPYVLGSAHQGCLPPFPADVFMIPQYGYLTLNNGSQAVGRSSFYCLEYFPSQMLRTGNNFTFSYTFEDVPFHSSYAHSQSLDRLMNPLIDQYLYYLNRTQNQSGSAQNKDLLFSRGSPAGMSVQPKNWLPGPCYRQQRVSKTKTDNNNSNFTWTGASKYNLNGRESIINPGTAMASHKDDKDKFFPMSGVMIFGKESAGASNTALDNVMITDEEEIKATNPVATERFGTVAVNLQSSSTDPATGDVHVMGALPGMVWQDRDVYLQGPIWAKIPHTDGHFHPSPLMGGFGLKHPPPQILIKNTPVPANPPAEFSATKFASFITQYSTGQVSVEIEWELQKENSKRWNPEVQYTSNYAKSANVDFTVDNNGLYTEPRPIGTRYLTRPL
Molecule B2 gave a Ka in experiment [2] of approximately 1e+09 M⁻¹. For the same molecule, the binding result in experiment [3] and in experiment [4] was “no binding” throughout.
